Laboratory results as given in patent US12091391B2, “Reagents and methods for bioorthogonal labeling of biomolecules in living cells” (Oregon State University, priority 2015, dated 2024).
Where a chain is given by its changes, count along the chain named. Names and notes keep the numbering of the source.

B1: R2-40: M. barkeri PylRS synthetase hit for Tet-v3.0: N311G, C313A, K296R (protein, UniProt Q46E77 1-419, looked up, variant N311G C313A K296R)
Pyrrolysine--tRNA ligase: MDKKPLDVLISATGLWMSRTGTLHKIKHYEVSRSKIYIEMACGDHLVVNNSRSCRTARAFRHHKYRKTCKRCRVSDEDINNFLTRSTEGKTSVKVKVVSAPKVKKAMPKSVSRAPKPLENPVSAKASTDTSRSVPSPAKSTPNSPVPTSAPAPSLTRSQLDRVEALLSPEDKISLNIAKPFRELESELVTRRKNDFQRLYTNDREDYLGKLERDITKFFVDRDFLEIKSPILIPAEYVERMGINNDTELSKQIFRVDKNLCLRPMLAPTLYNYLRKLDRILPDPIKIFEVGPCYRRESDGKEHLEEFTMVGFAQMGSGCTRENLESLIKEFLDYLEIDFEIVGDSCMVYGDTLDIMHGDLELSSAVVGPVPLDREWGIDKPWIGAGFGLERLLKVMHGFKNIKRASRSESYYNGISTNL
B2: R2-84: M. barkeri PylRS synthetase hit for Tet-v3.0: L270G, N311G, C313A, R263C (protein, UniProt Q46E77 1-419, looked up, variant L270G N311G C313A R263C)
Pyrrolysine--tRNA ligase: B1 Pyrrolysine--tRNA ligase with R263C, L270G, R296K
B3: R2-74: M. barkeri PylRS synthetase hit for Tet-v3.0: L270G, N311G, C313S (protein, UniProt Q46E77 1-419, looked up, variant L270G N311G C313S)
Pyrrolysine--tRNA ligase: B1 Pyrrolysine--tRNA ligase with L270G, R296K, A313S

Assay: UP50 characterization of select synthetases (GFP fluorescence versus Tet-v3.0 concentration)
Format: cell-based, E. coli
Conditions: fluorescence normalized to optical density, amino acid Tet-v3.0 (methyl)
Text: The UP50 value is a measure of amino acid concentration at which cells containing a given synthetase produces half of the maximum amount of unnatural protein containing the amino acid of interest. In this way the UP50 is dependent both on the synthetase and amino acid of interest. This value is obtained by measuring the fluorescence of produced GFP at various concentrations of amino acids and fitting measured values to the curve:
UP is the measured fluorescence, [AA] is the amino acid concentration, and UPmax is the maximum protein produced. The methodology for obtaining UP50 and UPmax values is described below.
Non-inducing media starter cultures containing Tcn (25 μg/mL) and Kn (50 μg/mL) were grown overnight (37° C., 18 hrs). Starter cultures consisted of E. coli DH10B transformed with a pBK plasmid containing the synthetases of interest (R2-40, R2-74, and R2-84) and tRNA, as well as a pALS plasmid containing an amber codon interrupted GFP gene under control of an araBAD promoter. Starters were used to inoculate (30 μL) autoinducing media (3 mL) containing Tcn (25 μg/mL), Kn (50 μg/mL), and Tet-v3.0 at various concentrations. Tet-v3.0 concentrations were varied from 0.005 mM to 1 mM with duplicates for each concentration. As a control, media was inoculated in duplicate containing no amino acid. To aid in dissolution, 30 μL of N,N-dimethyl formamide (DMF) was added to the Tet-v3.0 prior to addition to media.
The fluorescence and optical density of the media was measured after 24, 36, and 48 hrs. The fluorescence normalized to the optical density was plotted across Tet-v3.0 concentrations and used to calculate the UP50 and UPmax for individual synthetases (see FIG. 16. FIG. 16 compares UP50 titration curves for three Tet-v3.0-methyl incorporating synthetases: R2-40, R2-74, and R2-84. UP50 and UPmax values are obtained from the fit of the curves. The R2-74 synthetase was moved into eukaryotic plasmids for protein expression.

Going from B1 to B2, the UPmax falls from 540 to 517.

B3 gave a UPmax of 400.
